The values that follow come from paper PMC12356973.

This data set addresses nsp10 (two [Fe4S4]);nsp16 (SARS-CoV-2;SARS-CoV-2, UniProt P0DTD1;P0DTD1 4254-4392;6799-7096, |). Kind of data set: EMSA. Particulars: protein: recombinant;recombinant; copies: 1;1; single strand.

Take AUUAAAGGUU (ssRNA, 5' m7Gppp cap (Cap-0), Vaccinia capping system) [Cap-0 RNA (7MeGppp RNA)]: the binding result was “binds”.
